The record followed here is patent US6727407.

Data set [1] concerns the target GST-CCA1, P92973.
Data set [2] addresses T1, GST-LHY, Q6R0H1.
T1 chain: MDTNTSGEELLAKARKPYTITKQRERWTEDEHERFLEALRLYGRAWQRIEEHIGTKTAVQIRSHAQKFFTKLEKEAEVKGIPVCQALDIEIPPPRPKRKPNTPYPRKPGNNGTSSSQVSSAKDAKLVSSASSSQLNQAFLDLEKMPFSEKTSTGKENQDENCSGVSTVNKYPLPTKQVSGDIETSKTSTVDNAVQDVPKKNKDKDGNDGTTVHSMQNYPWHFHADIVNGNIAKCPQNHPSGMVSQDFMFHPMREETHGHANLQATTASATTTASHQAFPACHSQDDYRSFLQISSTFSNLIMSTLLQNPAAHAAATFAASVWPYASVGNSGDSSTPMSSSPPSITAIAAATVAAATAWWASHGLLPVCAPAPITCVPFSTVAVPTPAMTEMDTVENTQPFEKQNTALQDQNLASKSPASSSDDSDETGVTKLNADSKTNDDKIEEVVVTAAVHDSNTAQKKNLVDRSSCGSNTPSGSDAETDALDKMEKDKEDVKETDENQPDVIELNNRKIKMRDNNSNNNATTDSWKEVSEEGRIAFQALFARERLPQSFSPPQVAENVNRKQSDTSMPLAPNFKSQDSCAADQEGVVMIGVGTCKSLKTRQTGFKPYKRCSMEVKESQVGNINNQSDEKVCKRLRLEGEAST

In data set [3] the target is T2, His-tagged CKB1, P40228.
T2 chain: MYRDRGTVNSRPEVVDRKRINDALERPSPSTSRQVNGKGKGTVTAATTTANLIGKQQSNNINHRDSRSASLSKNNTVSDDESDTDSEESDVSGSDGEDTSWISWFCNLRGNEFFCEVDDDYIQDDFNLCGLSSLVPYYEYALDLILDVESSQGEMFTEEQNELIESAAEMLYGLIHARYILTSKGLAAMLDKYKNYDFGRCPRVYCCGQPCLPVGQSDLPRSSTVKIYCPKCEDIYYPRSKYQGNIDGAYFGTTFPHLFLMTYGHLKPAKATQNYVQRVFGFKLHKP

The target of data set [4] is T3, His-tagged CKB3.
T3 chain: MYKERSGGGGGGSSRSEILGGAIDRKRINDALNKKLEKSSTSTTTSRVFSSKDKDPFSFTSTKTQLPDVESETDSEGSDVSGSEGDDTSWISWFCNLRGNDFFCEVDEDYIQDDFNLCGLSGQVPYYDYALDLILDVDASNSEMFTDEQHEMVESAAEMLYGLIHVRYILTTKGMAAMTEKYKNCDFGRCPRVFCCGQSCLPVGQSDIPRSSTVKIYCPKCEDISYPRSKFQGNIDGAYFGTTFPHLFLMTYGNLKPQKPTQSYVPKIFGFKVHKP

The target of data set [5] is glutathione-S-transferase (GST) [GST: P08515].
Sequence of glutathione-S-transferase (GST) [GST: P08515] (P08515 whole entry): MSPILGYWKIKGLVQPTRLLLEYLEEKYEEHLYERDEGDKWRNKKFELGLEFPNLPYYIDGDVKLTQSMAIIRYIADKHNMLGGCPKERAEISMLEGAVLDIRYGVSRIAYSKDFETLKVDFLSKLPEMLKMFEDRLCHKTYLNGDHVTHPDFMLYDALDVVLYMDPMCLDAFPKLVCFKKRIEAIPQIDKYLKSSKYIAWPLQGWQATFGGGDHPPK

Sequence of GST-CCA1, P92973 (P92973 whole entry): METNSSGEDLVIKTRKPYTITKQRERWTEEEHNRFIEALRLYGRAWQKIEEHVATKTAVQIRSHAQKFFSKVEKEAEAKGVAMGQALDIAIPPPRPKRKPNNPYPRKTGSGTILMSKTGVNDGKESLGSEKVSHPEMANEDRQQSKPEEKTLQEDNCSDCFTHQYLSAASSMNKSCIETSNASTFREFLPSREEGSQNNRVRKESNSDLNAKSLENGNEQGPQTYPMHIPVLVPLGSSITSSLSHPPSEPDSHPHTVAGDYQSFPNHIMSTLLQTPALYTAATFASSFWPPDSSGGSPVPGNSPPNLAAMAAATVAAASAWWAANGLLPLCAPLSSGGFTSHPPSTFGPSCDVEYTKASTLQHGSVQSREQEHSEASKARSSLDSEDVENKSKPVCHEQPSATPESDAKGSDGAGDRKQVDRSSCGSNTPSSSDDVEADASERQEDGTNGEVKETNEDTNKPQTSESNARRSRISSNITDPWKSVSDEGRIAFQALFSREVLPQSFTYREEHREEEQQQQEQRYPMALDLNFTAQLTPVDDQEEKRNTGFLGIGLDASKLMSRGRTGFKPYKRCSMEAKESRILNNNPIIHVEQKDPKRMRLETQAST

B1: CKA1 (α-subunit of Arabidopsis protein kinase CK2) (protein)
chain: MSKARVYTEVNVIRPKDYWDYESLIVQWGEQDDYEVVRKVGRGKYSEVFEGINVNSKEKCIIKILKPVKKKKIRREIKILQNLCGGPNIVKLLDVVRDQHSKTPSLIFEYVNSTDFKVLYPTLTDYDIRYYIYELLKALDFCHSQGIMHRDVKPHNVMIDHELRKLRLIDWGLAEFYHPGKEYNVRVASRYFKGPELLVDLQDYDYSLDMWSLGCMFAGMIFRKEPFFYGHDNQDQLVKIAKVLGTDELNAYLNKYQLELDPQLEALVGRHSRKPWSKFINADNQHLVSPEAIDFLDKLLRYDHQDRLTAKEAMAHAYFAQVRAAETSRMRSQ
For the protein B1, the “in vitro phosphorylation with [γ-32P]ATP, SDS-PAGE autoradiography” value in data set [1] is given as “a large amount of CKA1 (280 ng) phosphorylates GST-CCA1 but not GST”; in data set [2], “CKA1, the α-subunit of CK2, could phosphorylate LHY”; in data set [5], “a large amount of CKA1 (280 ng) phosphorylates GST-CCA1 but not GST”. In addition, the “phosphorylation of GST-CCA1 by 14 ng of CKA1 with 35 ng of β-subunit” value in data set [3] and in data set [4] was “a strong stimulation of the CCA1 phosphorylation was observed by adding either CKB1 or CKB3” throughout. Moreover, the “phosphorylation of GST-LHY by CKA1 with added β-subunit” value in data set [3] and in data set [4] was “this phosphorylation was enhanced by adding either CKB1 or CKB3” in each case.
